The subject of the data set is C=C(OP(=O)(O)O)C(=O)O. Briefly: anti-pHis dot-blot assay of autophosphorylation velocity. Type of data set: biochemical, Escherichia coli. The settings on record: phosphoryl donor; n = 3.

One substance from PMC3686892 can be followed below.

For enzyme I (PtsI) (Escherichia coli K-12), the Michaelis-Menten constant (Km) – broadly, the concentration of substrate that gives half-maximal velocity – amounted to 135 ± 30 µM.
